Values of other authors as cited in article PMC6063947.

Target: Asp61 (UniProt position 61, VMGLVDAIPMI)
Assay: NMR

Substance: ATP synthase subunit c (F0 sector, proteolipid) (Escherichia coli)
- pKa: 7.1
